B1: PPEF2 (parent)
chain: AFKAAALIQRWYRRYVARLEMRRR

Variants of: B1
Experiment: protein stability index of a GFP-peptide fusion (GPS, HEK-293T) (PSI 1-6); higher = more stable
Conditions: c terminus: a fixed tail appended
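Note: lentivirally expressed fusions sorted by FACS into six bins by GFP to DsRed ratio, PSI derived from sequencing read proportions per bin multiplied by bin number.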

Variant | protein stability index
AFKAQALIQRWYRRYVARLEMRRR [A5Q] | 1.85
AFKAFALIQRWYRRYVARLEMRRR [A5F] | 1.98
AFKAEALIQRWYRRYVARLEMRRR [A5E] | 4.4
AFKARALIQRWYRRYVARLEMRRR [A5R] | 2.39
AFKATALIQRWYRRYVARLEMRRR [A5T] | 2.55
AFKAPALIQRWYRRYVARLEMRRR [A5P] | 2.08
AFKAGALIQRWYRRYVARLEMRRR [A5G] | 2.94
AFKAIALIQRWYRRYVARLEMRRR [A5I] | 2.4
AFKAHALIQRWYRRYVARLEMRRR [A5H] | 2.67
AFKANALIQRWYRRYVARLEMRRR [A5N] | 2.11
AFKAAALITRWYRRYVARLEMRRR [Q9T] | 3.39
AFKAAALIARWYRRYVARLEMRRR [Q9A] | 3.25
AFKAAALISRWYRRYVARLEMRRR [Q9S] | 2.54
AFKAAALIYRWYRRYVARLEMRRR [Q9Y] | 2.23
AFKAAALIKRWYRRYVARLEMRRR [Q9K] | 3.59
AFKAAALICRWYRRYVARLEMRRR [Q9C] | 2.71
AFKAAALIIRWYRRYVARLEMRRR [Q9I] | 2.27
AFKAAALINRWYRRYVARLEMRRR [Q9N] | 2.1
AFKAAALILRWYRRYVARLEMRRR [Q9L] | 3.44
AFKAAALIHRWYRRYVARLEMRRR [Q9H] | 2.16
AFKAAALIRRWYRRYVARLEMRRR [Q9R] | 3.48
AFKAAALIDRWYRRYVARLEMRRR [Q9D] | 1.86
AFKAAALIERWYRRYVARLEMRRR [Q9E] | 1.59
AFKAAALIMRWYRRYVARLEMRRR [Q9M] | 2.37

Variant | protein stability index
AFKAAALIFRWYRRYVARLEMRRR [Q9F] | 2.85
AFKAAALIVRWYRRYVARLEMRRR [Q9V] | 2.99
AFKAAALIWRWYRRYVARLEMRRR [Q9W] | 2.98
AFKAAAQIQRWYRRYVARLEMRRR [L7Q] | 4.96
AFKAAAGIQRWYRRYVARLEMRRR [L7G] | 2.33
AFKAAAMIQRWYRRYVARLEMRRR [L7M] | 2.25
AFKAAASIQRWYRRYVARLEMRRR [L7S] | 2.93
AFKAAANIQRWYRRYVARLEMRRR [L7N] | 2.64
AFKAAAAIQRWYRRYVARLEMRRR [L7A] | 4.83
AFKAAAIIQRWYRRYVARLEMRRR [L7I] | 4.77
AFKAAAFIQRWYRRYVARLEMRRR [L7F] | 3.21
AFKAAARIQRWYRRYVARLEMRRR [L7R] | 5.03
AFKAAATIQRWYRRYVARLEMRRR [L7T] | 4.39
AMKAAALIQRWYRRYVARLEMRRR [F2M] | 3.8
AWKAAALIQRWYRRYVARLEMRRR [F2W] | 3.79
ALKAAALIQRWYRRYVARLEMRRR [F2L] | 3.99
AYKAAALIQRWYRRYVARLEMRRR [F2Y] | 3.46
ARKAAALIQRWYRRYVARLEMRRR [F2R] | 3.76
ANKAAALIQRWYRRYVARLEMRRR [F2N] | 3.3
APKAAALIQRWYRRYVARLEMRRR [F2P] | 3.78
AKKAAALIQRWYRRYVARLEMRRR [F2K] | 3.04
AFKAAALIQRWYHRYVARLEMRRR [R13H] | 2.16
AFKAAALIQRWYTRYVARLEMRRR [R13T] | 1.8
AFKAAALIQRWYKRYVARLEMRRR [R13K] | 2.22

Variant | protein stability index
AFKAAALIQRWYLRYVARLEMRRR [R13L] | 2.05
AFKAAALIQRWYMRYVARLEMRRR [R13M] | 1.93
AFKAAALIQRWYERYVARLEMRRR [R13E] | 1.95
AFKAAALIQRWYIRYVARLEMRRR [R13I] | 2.53
AFKAAALIQRWYARYVARLEMRRR [R13A] | 1.62
AFKAAALIQRWYNRYVARLEMRRR [R13N] | 1.15
AFKAAALIQRWYFRYVARLEMRRR [R13F] | 2.06
AFKAAALIQRWYPRYVARLEMRRR [R13P] | 1.23
AFKAAALIQRWYQRYVARLEMRRR [R13Q] | 2.26
AFKAAALIQLWYRRYVARLEMRRR [R10L] | 1.71
AFKAAALIQFWYRRYVARLEMRRR [R10F] | 2.88
AFKAAALIQTWYRRYVARLEMRRR [R10T] | 2.1
AFKAAALIQAWYRRYVARLEMRRR [R10A] | 2.4
AFKAAALIQHWYRRYVARLEMRRR [R10H] | 2.51
AFKAAALIQDWYRRYVARLEMRRR [R10D] | 1.67
AFKAAALIQGWYRRYVARLEMRRR [R10G] | 1.88
AFKAAALIQNWYRRYVARLEMRRR [R10N] | 3.6
AFKAAALIQSWYRRYVARLEMRRR [R10S] | 2.27
AFKAAALIQRWYRYYVARLEMRRR [R14Y] | 1.79
AFKAAALIQRWYRAYVARLEMRRR [R14A] | 2.17
AFKAAALIQRWYRVYVARLEMRRR [R14V] | 1.07
AFKAAALIQRWYRMYVARLEMRRR [R14M] | 2.2
AFKAAALIQRWYREYVARLEMRRR [R14E] | 2.32
AFKAAALIQRWYRQYVARLEMRRR [R14Q] | 2.74

Variant | protein stability index
AFKAAALIQRWYRIYVARLEMRRR [R14I] | 1.84
AFKAAALIQRWYRPYVARLEMRRR [R14P] | 1.59
AFKAAALIQRWYRFYVARLEMRRR [R14F] | 2.29
AFKAAALIQRWYRDYVARLEMRRR [R14D] | 1.66
AFKAAALIQRWYRKYVARLEMRRR [R14K] | 3
AFKAAALIQRWYRLYVARLEMRRR [R14L] | 1.84
AFKAAALIQRWYRNYVARLEMRRR [R14N] | 2.83
AFKAAALIQRWYRHYVARLEMRRR [R14H] | 2.42
AFKAAALIQRWYRTYVARLEMRRR [R14T] | 2.49
AFCAAALIQRWYRRYVARLEMRRR [K3C] | 1.86
AFIAAALIQRWYRRYVARLEMRRR [K3I] | 2.66
AFEAAALIQRWYRRYVARLEMRRR [K3E] | 3.71
AFSAAALIQRWYRRYVARLEMRRR [K3S] | 4.09
AFDAAALIQRWYRRYVARLEMRRR [K3D] | 2.27
AFLAAALIQRWYRRYVARLEMRRR [K3L] | 1.75
AFYAAALIQRWYRRYVARLEMRRR [K3Y] | 2.87
AFRAAALIQRWYRRYVARLEMRRR [K3R] | 3.84
AFFAAALIQRWYRRYVARLEMRRR [K3F] | 2.38
AFKAAALIQRIYRRYVARLEMRRR [W11I] | 2.81
AFKAAALIQREYRRYVARLEMRRR [W11E] | 2.46
AFKAAALIQRMYRRYVARLEMRRR [W11M] | 2.84
AFKAAALIQRAYRRYVARLEMRRR [W11A] | 4.29

Source: the supplement of paper PMC10567573
